# Measurements reported in paper PMC3222648, “Inotropic Action of the Puberty Hormone Kisspeptin in Rat, Mouse and Human: Cardiovascular Distribution and Characteristics of the Kisspeptin Receptor” (PLoS ONE, 2011).
# Values joined by “and” are separate entries in the source; they are usually repeats but may differ in a detail not shown here. Identical values can stand only once. Like-named read-outs stand apart in the source and are kept apart here. Where no end group is shown, it is not given here.
# B1: Kisspeptin receptor (protein)
# chain: MAAEATLGPNVSWWAPSNASGCPGCGVNASDGPGSAPRPLDAWLVPLFFAALMLLGLVGNSLVIFVICRHKHMQTVTNFYIANLAATDVTFLLCCVPFTALLYPLPTWVLGDFMCKFVNYIQQVSVQATCATLTAMSVDRWYVTVFPLRALHRRTPRLALTVSLSIWVGSAAVSAPVLALHRLSPGPHTYCSEAFPSRALERAFALYNLLALYLLPLLATCACYGAMLRHLGRAAVRPAPTDGALQGQLLAQRAGAVRTKVSRLVAAVVLLFAACWGPIQLFLVLQALGPSGAWHPRSYAAYALKIWAHCMSYSNSALNPLLYAFLGSHFRQAFCRVCPCGPQRQRRPHASAHSDRAAPHSVPHSRAAHPVRVRTPEPGNPVRRSPSVQDEHTAPL
# How the values were obtained:
# kisspeptin receptor [1] = details: ref [3]; cited from earlier work
# From the text: Kisspeptin, or KP-54, is a member of a larger group of peptides, the RF amides, named after their shared C-terminal amino acids. RF amides have wide ranging roles in reproduction, feeding, blood pressure regulation and pain modulation with kisspeptins most closely implicated in reproduction and energy balance, [23]–[27]. KP-54 is cleaved from a single precursor, encoded by the KISS1 gene, and smaller fragments of kisspeptin have been identified that are cleaved from KP-54 by unidentified proteases.
# kisspeptin receptor [2] = target: T1, kisspeptin receptor (Rattus norvegicus, UniProt Q924U1); assay: [^125I]KP-14 receptor autoradiography, rat cardiovascular tissue sections; format: binding; details: for [^125I]KP-14 specific binding: 0.2 nM [^125I]KP-14, 2 h, pH 7.4, non-specific: 1 µM KP-10, mean ± SEM
# Protocol: (§1) For receptor autoradiography, cryostat-cut sections of human (15 µm) or rat (10 µm) heart were pre-incubated with phosphate binding buffer (mM: NaH2PO4, 50; NaCl, 100; EDTA, 5; MgCl2, 5; protease inhibitor cocktail, 1; pH 7.4) before incubation for 2 h with 0.2 nM [^125I]KP-14 [31]. […] Equilibrium was broken by washing in 50 mM Tris-HCl buffer, pH 7.4, 4°C before air-drying and apposition to radiation-sensitive film (Kodak Biomax MR) and determination of specific binding by computer-assisted densitometry using the Quantimet 970 system (Leica Microsystems, Bucks, UK).
# kisspeptin receptor [3] = target: T1, kisspeptin receptor; assay: [^125I]KP-14 saturation binding, rat heart sections
# Protocol: (§2) [^125I]KP-14 binding was detected using a gamma counter to measure disintegrations per minute (dpm) and total protein content was calculated using the Biorad 96-well microtiter plate system. Radioligand binding study data were analyzed using the iterative, non-linear curve fitting programs EBDA and LIGAND in the KELL package (Biosoft, Cambridge, UK). Pooled KD, BMAX and Hill slopes (nH) were expressed as mean±SEM and normalized to protein concentrations. […] Where appropriate, values were compared by one-way analysis of variance (ANOVA). In all cases P<0.05 was considered statistically significant and n-values were the number of animals or patients from which data were obtained.
# kisspeptin receptor [4] = target: T2, kisspeptin receptor (Homo sapiens, UniProt Q969F8); assay: [^125I]KP-14 saturation binding, human right atria sections; details: for BMAX (receptor density) / nH (Hill coefficient): mean ± SEM, n = 3
# T2 construct: cryostat-cut sections of human (15 µm) or rat (10 µm) heart; from tissue; host or cells: human right atria (control, dilated cardiomyopathy, ischaemic heart disease), cryostat sections
# T2 sequence (Q969F8 whole entry): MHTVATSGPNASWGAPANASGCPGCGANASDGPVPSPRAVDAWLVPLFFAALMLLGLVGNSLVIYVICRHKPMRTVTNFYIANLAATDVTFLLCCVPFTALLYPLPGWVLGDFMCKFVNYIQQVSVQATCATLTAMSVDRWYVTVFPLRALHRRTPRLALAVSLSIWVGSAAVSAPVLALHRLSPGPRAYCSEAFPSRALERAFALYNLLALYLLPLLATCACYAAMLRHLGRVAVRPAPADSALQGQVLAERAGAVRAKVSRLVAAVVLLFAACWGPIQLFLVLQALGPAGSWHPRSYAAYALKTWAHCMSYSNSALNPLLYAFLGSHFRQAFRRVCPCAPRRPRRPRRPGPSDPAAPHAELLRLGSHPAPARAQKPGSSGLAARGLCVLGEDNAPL
# Protocol: as §2
# kisspeptin receptor [5] = target: T2, kisspeptin receptor; assay: [^125I]KP-14 receptor autoradiography, human cardiovascular tissue sections; format: binding; details: for [^125I]KP-14 specific binding: 0.2 nM [^125I]KP-14, 2 h, mean ± SEM
# Protocol: as §1
# native human tissue = details: ref [40]; cited from earlier work
# [6] = cited from earlier work
# From the text: Our discovery that kisspeptins are positive inotropic agents in human and rodent heart is the first report of such activity. […] Activation of these signaling pathways would be consistent with function as both an inotropic a ...
# human heart = details: ref [39]; cited from earlier work
# From the text: The RF-amide peptide family, which also includes prolactin releasing peptide, are known to have roles in cardiovascular regulation, both centrally and peripherally, [35]. However, to date mRNA studies of kisspeptin receptor distribution in whole heart samples have reported low but varying mRNA expression by northern blot, expression was not detected by PCR [3], [4], [32] except by Sawyer and colleagues, who were also able to detect mRNA encoding murine kisspeptin, albeit at very low copy number. We now report for the first time, the expression of kisspeptin a ...
# KP-14 = target: T3, KP-14 (Homo sapiens, UniProt Q15726, ends and bridges not checked; also: 125I-labelled); assay: saturation radioligand binding, heart sections
# T3 chain: DLPNYNWNSFGLRF
# [7] = human right atria, dilated cardiomyopathy (DCM)
# [8] = human right atria, ischaemic heart disease (IHD)
molecule,measurement,setting,value
"KP-13: smaller fragment of kisspeptin cleaved from KP-54 (LPNYNWNSFGLRF; ends and bridges not checked; UniProt Q15726 109-121, looked up)",biological activity of fragment,kisspeptin receptor [1],retain biological activity
"KP-14: smaller fragment of kisspeptin cleaved from KP-54; custom synthesised by Severn Biotech (DLPNYNWNSFGLRF-NH2; ends and bridges not checked; UniProt Q15726 108-121, looked up)",biological activity of fragment,kisspeptin receptor [1],retain biological activity
"[^125I]KP-14: radioligand (2000 Ci/mmol) prepared from unlabelled KP-14 by direct iodination using the chloramine-T method (DLPNYNWNSFGLRF; not fully specified; ends and bridges not checked; also: 125I radiolabel, site not given here; UniProt Q15726 108-121, looked up)",[^125I]KP-14 specific binding,"kisspeptin receptor [2]; rat aorta, n = 3",21±2 amol mm^−2
same,[^125I]KP-14 specific binding,"kisspeptin receptor [2]; rat heart, n = 5",29±10 amol mm^−2
same,specific binding of [^125I]KP-14 (in words),"kisspeptin receptor [2]; rat myocardium, rat aorta smooth muscle",observed in all regions of human and rat myocardium
same,Hill slopes (in words),kisspeptin receptor [3],close to unity
same,BMAX,"kisspeptin receptor [3]; mean ± SEM, n = 6",11 ± 2 fmol/mg
same,BMAX (receptor density),kisspeptin receptor [4]; control human right atria,8±5 fmol mg^−1 protein and 8.0±4.8 fmol mg^−1 protein
same,nH (Hill coefficient),kisspeptin receptor [4]; control human right atria,0.82±0.10
same,Hill slopes (in words),kisspeptin receptor [4]; human right atria,close to unity
same,difference in receptor density or binding affinity,"kisspeptin receptor [4]; human right atria, control vs DCM vs IHD",No significant difference in receptor density or binding affinity
same,BMAX (receptor density),kisspeptin receptor [4]; [7],10.2±3.4 fmol mg^−1 protein
same,nH (Hill coefficient),kisspeptin receptor [4]; [7],1.00±0.02
same,BMAX (receptor density),kisspeptin receptor [4]; [8],13.5±7.0 fmol mg^−1 protein
same,nH (Hill coefficient),kisspeptin receptor [4]; [8],0.94±0.03
same,[^125I]KP-14 specific binding,"kisspeptin receptor [5]; human aorta, pH 7.4, n = 6",214±46 amol mm^−2
same,[^125I]KP-14 specific binding,"kisspeptin receptor [5]; human apex, pH 7.4, n = 4",27±6 amol mm^−2
same,[^125I]KP-14 specific binding,"kisspeptin receptor [5]; human atrial appendage, pH 7.4, n = 4",51±15 amol mm^−2
same,[^125I]KP-14 specific binding,"kisspeptin receptor [5]; human interventricular septum, pH 7.4, n = 3",29±10 amol mm^−2
same,[^125I]KP-14 specific binding,"kisspeptin receptor [5]; human left atria, phosphate binding buffer pH 7.4, non-specific: 10 µM KP-14, n = 3",59±16 amol mm^−2
same,[^125I]KP-14 specific binding,"kisspeptin receptor [5]; human left ventricle, pH 7.4, n = 3",34±8 amol mm^−2
same,specific binding of [^125I]KP-14 (in words),"kisspeptin receptor [5]; human myocardium, all regions, smooth muscle of human aorta and small coronary resistance vessels",observed in all regions of human and rat myocardium
same,[^125I]KP-14 specific binding,"kisspeptin receptor [5]; human right atria, pH 7.4, n = 3",36±7 amol mm^−2
same,[^125I]KP-14 specific binding,"kisspeptin receptor [5]; human right ventricle, pH 7.4, n = 3",31±7 amol mm^−2
same,[^125I]KP-14 specific binding,"kisspeptin receptor [5]; human small resistance vessel, pH 7.4, n = 5",4±3 amol mm^−2
apelin,BMAX,native human tissue,3.1 fmol/mg
same,pD2 (inotropic effect),[6]; ref [44],9.9
endothelin,pD2 (inotropic effect),[6]; ref [43],8.9
"urotensin-II: vasoactive peptide and potent inotrope in human heart (ETPDCFWKYCV; ends and bridges not checked; cysteine pairing not given here; UniProt O95399 114-124, looked up)",inotropic activity (in words),human heart,potent inotrope in human heart
B1,Kd,KP-14,0.44 nM
